Reference: IntAct's records for PubMed 14561633

B1: Transcription factor GLABRA 3 (Arabidopsis thaliana (Mouse-ear cress)), Q9FN69 (parent)
chain: MATGQNRTTVPENLKKHLAVSVRNIQWSYGIFWSVSASQSGVLEWGDGYYNGDIKTRKTIQASEIKADQLGLRRSEQLSELYESLSVAESSSSGVAAGSQVTRRASAAALSPEDLADTEWYYLVCMSFVFNIGEGMPGRTFANGEPIWLCNAHTADSKVFSRSLLAKSAAVKTVVCFPFLGGVVEIGTTEHITEDMNVIQCVKTSFLEAPDPYATILPARSDYHIDNVLDPQQILGDEIYAPMFSTEPFPTASPSRTTNGFDQEHEQVADDHDSFMTERITGGASQVQSWQLMDDELSNCVHQSLNSSDCVSQTFVEGAAGRVAYGARKSRVQRLGQIQEQQRNVKTLSFDPRNDDVHYQSVISTIFKTNHQLILGPQFRNCDKQSSFTRWKKSSSSSSGTATVTAPSQGMLKKIIFDVPRVHQKEKLMLDSPEARDETGNHAVLEKKRREKLNERFMTLRKIIPSINKIDKVSILDDTIEYLQELERRVQELESCRESTDTETRGTMTMKRKKPCDAGERTSANCANNETGNGKKVSVNNVGEAEPADTGFTGLTDNLRIGSFGNEVVIELRCAWREGVLLEIMDVISDLHLDSHSVQSSTGDGLLCLTVNCKHKGSKIATPGMIKEALQRVAWIC
partner: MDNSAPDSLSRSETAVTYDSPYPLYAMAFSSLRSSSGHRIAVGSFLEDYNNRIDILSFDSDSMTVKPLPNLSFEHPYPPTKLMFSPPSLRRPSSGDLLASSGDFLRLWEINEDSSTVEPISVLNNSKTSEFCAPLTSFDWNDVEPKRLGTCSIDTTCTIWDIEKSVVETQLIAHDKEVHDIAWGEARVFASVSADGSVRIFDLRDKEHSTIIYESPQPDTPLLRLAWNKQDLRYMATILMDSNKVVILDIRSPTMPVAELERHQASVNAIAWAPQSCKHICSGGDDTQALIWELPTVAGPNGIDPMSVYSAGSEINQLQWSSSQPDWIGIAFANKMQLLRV
B2: Transcription factor GLABRA 3 (Arabidopsis thaliana (Mouse-ear cress)), Q9FN69 (parent)
chain: B1 chain
partner: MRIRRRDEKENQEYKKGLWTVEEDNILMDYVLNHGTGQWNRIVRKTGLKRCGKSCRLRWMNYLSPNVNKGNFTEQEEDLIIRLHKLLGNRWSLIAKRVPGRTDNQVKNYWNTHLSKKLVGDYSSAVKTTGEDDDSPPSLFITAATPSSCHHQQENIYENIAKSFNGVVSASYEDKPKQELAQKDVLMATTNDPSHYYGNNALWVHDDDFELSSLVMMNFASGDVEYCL

Variants of: B1
Conditions: with ttg1_arath TTG1, Q9XGN1

Q: For L78F, which “effect of a mutation on the interaction” value is on record?
A: decreasing interaction

Variants of: B2
Conditions: with gl1_arath GL1, P27900

Q: Which “effect of a mutation on the interaction” value does the source give for L78F here?
A: decreasing interaction
